# Patent publication US20210324360
# Target: SUMO-modified granzyme B
# Sequence (chain, as listed by the source): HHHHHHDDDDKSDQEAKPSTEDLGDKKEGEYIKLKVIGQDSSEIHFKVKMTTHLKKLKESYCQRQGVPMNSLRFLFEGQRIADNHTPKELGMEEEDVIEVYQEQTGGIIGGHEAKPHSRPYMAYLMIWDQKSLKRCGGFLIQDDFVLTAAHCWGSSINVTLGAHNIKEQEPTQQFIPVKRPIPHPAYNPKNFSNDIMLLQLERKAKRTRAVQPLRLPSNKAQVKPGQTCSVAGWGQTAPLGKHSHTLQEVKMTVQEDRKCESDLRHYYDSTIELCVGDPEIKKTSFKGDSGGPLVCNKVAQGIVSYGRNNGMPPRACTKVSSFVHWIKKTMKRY
protein,measurement,value
Sentrin-specific protease 1 (SENP1) (protein) MDDIADRMRMDAGEVTLVNHNSVFKTHLLPQTGFPEDQLSLSDQQILSSRQGHLDRSFTCSTRSAAYNPSYYSDNPSSDSFLGSGDLRTFGQSANGQWRNSTPSSSSSLQKSRNSRSLYLETRKTSSGLSNSFAGKSNHHCHVSAYEKSFPIKPVPSPSWSGSCRRSLLSPKKTQRRHVSTAEETVQEEEREIYRQLLQMVTGKQFTIAKPTTHFPLHLSRCLSSSKNTLKDSLFKNGNSCASQIIGSDTSSSGSASILTNQEQLSHSVYSLSSYTPDVAFGSKDSGTLHHPHHHHSVPHQPDNLAASNTQSEGSDSVILLKVKDSQTPTPSSTFFQAELWIKELTSVYDSRARERLRQIEEQKALALQLQNQRLQEREHSVHDSVELHLRVPLEKEIPVTVVQETQKKGHKLTDSEDEFPEITEEMEKEIKNVFRNGNQDEVLSEAFRLTITRKDIQTLNHLNWLNDEIINFYMNMLMERSKEKGLPSVHAFNTFFFTKLKTAGYQAVKRWTKKVDVFSVDILLVPIHLGVHWCLAVVDFRKKNITYYDSMGGINNEACRILLQYLKQESIDKKRKEFDTNGWQLFSKKSQEIPQQMNGSDCGMFACKYADCITKDRPINFTQQHMPYFRKRMVWEILHRKLL,"GrB activity (cleavage of Ac-IEPD-pNA, absorbance at 405 nm) and western blot after co-incubation with Mock-transfected or SENP1-overexpressing HEK lysate",SENP1 activates SUMO-GrB
